Experimental data published in PMC3207120.

Assays:
Details in all cases: 100 mM Tris-HCl pH 7, 15 mM MgCl2, 37 °C
steady-state kinetics = substrate: O=P(O)(O)OC[C@H]1OC(O)[C@H](O)[C@@H](O)[C@@H]1O; test: steady-state kinetics; type: biochemical, Bacillus subtilis
purified protein [1] = substrate: O=P(O)(O)O[C@H]1O[C@H](CO)[C@H](O)[C@H](O)[C@H]1O; test: purified protein
purified protein [2] = substrate: O=C(CO)[C@@H](O)[C@H](O)COP(=O)(O)O; test: purified protein
purified protein [3] = substrate: O=[N+]([O-])c1ccc(OP(=O)(O)O)cc1; test: purified protein

B1: AraL (recombinant AraL-His6, pLG11) (Bacillus subtilis subsp. subtilis str. 168; V11M) (protein)
chain: MSPAGILIDLDGTVFRGNELIEGAREAIKTLRRMGKKIVFLSNRGNISRAMCRKKLLGAGIETDVNDIVLSSSVTAAFLKKHYRFSKVWVLGEQGLVDELRLAGVQNASEPKEADWLVISLHETLTYDDLNQAFQAAAGGARIIATNKDRSFPNEDGNAIDVAGMIGAIETSAQAKTELVVGKPSWLMAEAACTAMGLSAHECMIIGDSIESDIAMGKLYGMKSALVLTGSAKQGEQRLYTPDYVLDSIKDVTKLAEEGILI
Q: What does the source list for B1?
A: Km (steady-state kinetics): 24.96 ± 4.08 mM; kcat (steady-state kinetics): 2.49 ± 0.26 s⁻¹; kcat/Km (steady-state kinetics): 99.8 M⁻¹ s⁻¹; Km (purified protein [1]): 40.74 ± 6.03 mM; kcat (purified protein [1]): 4.28 ± 0.4 s⁻¹; kcat/Km (purified protein [1]): 102 M⁻¹ s⁻¹; Km (purified protein [2]): 29.14 ± 4.87 mM; kcat (purified protein [2]): 2.75 ± 0.26 s⁻¹; kcat/Km (purified protein [2]): 94.3 M⁻¹ s⁻¹; Km (purified protein [3]): 50.00 ± 23.32 mM; kcat (purified protein [3]): 0.012 ± 0.0006 s⁻¹; kcat/Km (purified protein [3]): 0.24 M⁻¹ s⁻¹
